Laboratory results published in publication PMC9699676, “Host nucleases generate prespacers for primed adaptation in the E. coli type I-E CRISPR-Cas system”.

What was measured:
[1] = target: T1, Cas1;Cas2 (Escherichia coli;Escherichia coli, UniProt Q46896;P45956 1-305;1-94, |); assay: EMSA; preannealed; reference for substrate 10; 40 mM Tris-HCl pH 7.5, 50 mM NaCl, 10 mM MgCl2, 0.5 mM TCEP, 0.1 mg/ml BSA; EMSA (Fig. S9) 25 nM DNA, 2 uM Cas1-Cas2, 37 C 30 min; footprinting 0.2 uM DNA, 1.6; conditions: protein: recombinant;recombinant; tags: ;; chain copies: 4;2; label: 5'-32P on strand 1; 23-bp duplex, 3' overhang 5 nt on each end
T1 sequence 1: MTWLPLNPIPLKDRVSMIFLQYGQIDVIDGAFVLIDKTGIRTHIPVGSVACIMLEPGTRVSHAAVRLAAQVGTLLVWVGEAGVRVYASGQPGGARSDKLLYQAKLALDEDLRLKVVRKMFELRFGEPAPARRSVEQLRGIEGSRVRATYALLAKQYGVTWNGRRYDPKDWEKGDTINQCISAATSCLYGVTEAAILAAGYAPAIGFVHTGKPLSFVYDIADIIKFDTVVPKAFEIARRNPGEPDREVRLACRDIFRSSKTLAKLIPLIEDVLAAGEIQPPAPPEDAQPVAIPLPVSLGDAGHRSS
T1 sequence 2: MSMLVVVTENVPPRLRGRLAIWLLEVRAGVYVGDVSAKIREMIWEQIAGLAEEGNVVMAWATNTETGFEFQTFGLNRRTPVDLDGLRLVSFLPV

[2] = target: T1, Cas1;Cas2; assay: EMSA; preannealed; 40 mM Tris-HCl pH 7.5, 50 mM NaCl, 10 mM MgCl2, 0.5 mM TCEP, 0.1 mg/ml BSA; EMSA (Fig. S9) 25 nM DNA, 2 uM Cas1-Cas2, 37 C 30 min; footprinting 0.2 uM DNA, 1.6; conditions: protein: recombinant;recombinant; tags: ;; chain copies: 4;2; label: 5'-32P on strand 1; 28-bp duplex, single 3' overhang 5 nt
[3] = target: T1, Cas1;Cas2; assay: exonuclease footprinting; RecJ with RecBC or RecBCD, 1 mM ATP; 33-nt product; 40 mM Tris-HCl pH 7.5, 50 mM NaCl, 10 mM MgCl2, 0.5 mM TCEP, 0.1 mg/ml BSA; EMSA (Fig. S9) 25 nM DNA, 2 uM Cas1-Cas2, 37 C 30 min; footprinting 0.2 uM DNA, 1.6; conditions: protein: recombinant;recombinant; tags: ;; chain copies: 4;2; label: 3'-FAM on strand 1; fork; 23-bp duplex; extended 5' arm annealed to strand 3 as 15-bp blunt duplex
[4] = target: T1, Cas1;Cas2; assay: EMSA; strands added separately; 40 mM Tris-HCl pH 7.5, 50 mM NaCl, 10 mM MgCl2, 0.5 mM TCEP, 0.1 mg/ml BSA; EMSA (Fig. S9) 25 nM DNA, 2 uM Cas1-Cas2, 37 C 30 min; footprinting 0.2 uM DNA, 1.6; conditions: protein: recombinant;recombinant, tags: ;, chain copies: 4;2, label: 5'-32P on strand 1, 33-bp duplex
[5] = target: T1, Cas1;Cas2; assay: EMSA; preannealed; longer overhang stimulated binding; 40 mM Tris-HCl pH 7.5, 50 mM NaCl, 10 mM MgCl2, 0.5 mM TCEP, 0.1 mg/ml BSA; EMSA (Fig. S9) 25 nM DNA, 2 uM Cas1-Cas2, 37 C 30 min; footprinting 0.2 uM DNA, 1.6; conditions: protein: recombinant;recombinant, tags: ;, chain copies: 4;2, label: 5'-32P on strand 1, 28-bp duplex

B1: substrate 2 (dsDNA)
DNA 1: ATTTACTACTCGTTCTGGTGTTTCTCGT
DNA 2: AAACACCAGAACGAGTAGTAAATTGGGC
- binding result [1]: binds

B2: substrate 3 (dsDNA)
DNA 1: ATTTACTACTCGTTCTGGTGTTTCTCGT
DNA 2: ACGAGAAACACCAGAACGAGTAGTAAATTGGGC
- binding result [2]: binds

B3: double fork with 15-bp blunt end (Fig. 4B, S7) (dsDNA)
DNA 1: CCGCCTTAACCGGTCAACCTAAACATTTACCGCGCGATCGGGTGTTTGGTGA
DNA 2: CACAAAAACACCCGATCGCGCGGTAAATTGGGCTTGG
DNA 3: GACCGGTTAAGGCGG
- binding result [3]: binds

B4: substrate 10 (33/37) (dsDNA)
DNA 1: GCCCAATTTACTACTCGTTCTGGTGTTTCTCGT
DNA 2: ACGAGAAACACCAGAACGAGTAGTAAATTGGGCTTGA
- binding signal ([4]; single 3' overhang 4 nt with PAM): 18 fold more than preannealed

B5: substrate 9 (33/35) (dsDNA)
DNA 1: B4 DNA 1
DNA 2: ACGAGAAACACCAGAACGAGTAGTAAATTGGGCTT
- binding signal ([4]; single 3' overhang 2 nt with PAM): 5 fold more than preannealed

B6: substrate 5 (dsDNA)
DNA 1: ATTTACTACTCGTTCTGGTGTTTCTCGT
DNA 2: B4 DNA 2
- binding result ([5]; single 3' overhang 9 nt with PAM): binds

B7: substrate 4 (dsDNA)
DNA 1: ATTTACTACTCGTTCTGGTGTTTCTCGT
DNA 2: B5 DNA 2
- binding result ([5]; single 3' overhang 7 nt with PAM): binds
